# Data taken from patent US20240068024, “NUCLEIC ACID FRAGMENT AND USE THEREOF” (KYUSHU UNIVERSITY, NATIONAL UNIVERSITY CORPORATION, published 2024).
# B1: control ChIL probe (original) (dsDNA)
# DNA 1: CCCATGCATTAATACGACTCACTATAGGGTAGATCGCTCGTCGGCAGCGTCAGATGTGTATAAGAGACAG
# DNA 2: CTGTCTCTTATACACATCTGACGCTGCCGACGAGCGATCTACCCTATAGTGAGTCGTATTAATGCATGGG
# modifications: 5'-azide on SEQ 1 (click-linked to DBCO-PEG5 anti-mouse IgG); 5'-phosphate on SEQ 2
# What was measured:
# T7 RNA polymerase = T7 RNA polymerase (UniProt P00573 P00573:1-883); test: in situ transcription after Tn5 insertion in mouse liver section, library band 200-400 bp; 37 C overnight; no UV needed
# Tn5 transposase = Tn5 transposase (UniProt Q46731 Q46731:1-476); test: in situ transposition, 5 mM MgCl2, TAPS-DMF pH 8.5, 37 C; library band 200-400 bp; conditions: chain copies: 2 (stated, dimer)
# Experimental: PBS was removed, 100 μL of a Tn5 solution (150 ng/well in 1×Tn5 dialysis buffer) was added thereto, and the mixture was allowed to stand at room temperature for 1 hour. The composition of the 1×Tn5 dialysis buffer was formed of 50 mM HEPES-KOH (pH 7.2), 0.1 M NaCl, 0.1 mM EDTA, 1 mM DTT, 0.1% Triton X-100, and 10% glycerol. As a result, the transposase was bound to the transposase binding sequence of the double-stranded nucleic acid fragment of each ChIL probe.
# Subsequently, the 1×Tn5 dialysis buffer was removed, […] of a 1×TAPS-DMF buffer (10 mM TAPS-NaOH (pH 8.5), 5 mM MgCl₂, 10% N,N-dimethylformamide) was added thereto, and the mixture was allowed to stand at 37° C. for 1 hour. With this, the transposase bound to the double-stranded nucleic acid fragment of the ChIL probe was activated, and the double-stranded nucleic acid fragment of the ChIL probe was inserted in the vicinity of the binding region of the lysine 27 acetylation modified histone H3 on the genomic DNA.
# Sequence of T7 RNA polymerase (P00573 whole entry, one chain of several): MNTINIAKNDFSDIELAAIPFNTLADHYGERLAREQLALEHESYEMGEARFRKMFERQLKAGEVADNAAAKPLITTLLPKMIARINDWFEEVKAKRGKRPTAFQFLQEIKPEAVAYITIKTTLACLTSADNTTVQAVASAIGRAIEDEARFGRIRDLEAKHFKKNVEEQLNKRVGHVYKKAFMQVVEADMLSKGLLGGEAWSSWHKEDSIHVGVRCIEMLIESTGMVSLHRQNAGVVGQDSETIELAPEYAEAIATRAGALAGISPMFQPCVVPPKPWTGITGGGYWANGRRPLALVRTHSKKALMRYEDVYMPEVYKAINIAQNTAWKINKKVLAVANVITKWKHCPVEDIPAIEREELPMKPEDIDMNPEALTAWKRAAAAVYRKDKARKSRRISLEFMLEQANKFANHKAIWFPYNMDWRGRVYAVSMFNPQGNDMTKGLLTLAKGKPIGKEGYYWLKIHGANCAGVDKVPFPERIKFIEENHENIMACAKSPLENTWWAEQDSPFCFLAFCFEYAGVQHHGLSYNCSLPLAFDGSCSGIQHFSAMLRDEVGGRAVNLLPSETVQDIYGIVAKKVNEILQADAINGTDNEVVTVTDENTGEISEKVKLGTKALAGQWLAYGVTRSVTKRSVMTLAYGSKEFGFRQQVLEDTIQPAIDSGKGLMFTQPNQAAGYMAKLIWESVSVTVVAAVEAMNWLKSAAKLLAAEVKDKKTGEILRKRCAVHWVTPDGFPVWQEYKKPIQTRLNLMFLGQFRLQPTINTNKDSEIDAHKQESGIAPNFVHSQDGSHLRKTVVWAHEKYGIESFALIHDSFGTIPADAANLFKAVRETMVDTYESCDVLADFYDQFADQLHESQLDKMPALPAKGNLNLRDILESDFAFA
# Sequence of Tn5 transposase (Q46731 whole entry, the tested form may be a part, one chain of several): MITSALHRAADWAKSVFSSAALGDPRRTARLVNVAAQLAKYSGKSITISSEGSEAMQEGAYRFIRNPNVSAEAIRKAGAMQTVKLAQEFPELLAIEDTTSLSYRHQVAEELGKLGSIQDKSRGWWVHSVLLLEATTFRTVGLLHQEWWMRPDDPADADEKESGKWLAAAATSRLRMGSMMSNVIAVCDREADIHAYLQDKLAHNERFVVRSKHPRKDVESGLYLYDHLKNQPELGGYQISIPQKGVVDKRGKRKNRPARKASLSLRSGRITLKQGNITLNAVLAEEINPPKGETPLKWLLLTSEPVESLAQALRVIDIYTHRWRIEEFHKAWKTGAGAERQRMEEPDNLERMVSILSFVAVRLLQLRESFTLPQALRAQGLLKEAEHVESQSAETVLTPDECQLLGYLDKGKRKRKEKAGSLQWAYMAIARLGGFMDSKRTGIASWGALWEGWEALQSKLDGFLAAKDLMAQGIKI
binder,measurement,setting,value
B1,binding result,T7 RNA polymerase,binds
same,binding result,Tn5 transposase,binds
